Measured values from article PMC6318328 (2019).
Where no end group is shown, it is not given here. [ ]: non-standard residue; d: D form. Lys(Me3) = C[N+](C)(C)CCCC[C@H](N)C(=O)O; Arg(Me) = CNC(=N)NCCC[C@H](N)C(=O)O

T1: MLL3 ePHD6 I1100L (human, UniProt Q8NEZ4 1055-1144, I1100 of MLL3 to leucine)
T1 sequence: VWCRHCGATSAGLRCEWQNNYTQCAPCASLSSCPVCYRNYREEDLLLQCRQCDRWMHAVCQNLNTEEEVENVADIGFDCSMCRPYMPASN

T2: MLL4_(ePHD6)_(1475–1564) (human, UniProt O14686 1475-1564)
T2 chain: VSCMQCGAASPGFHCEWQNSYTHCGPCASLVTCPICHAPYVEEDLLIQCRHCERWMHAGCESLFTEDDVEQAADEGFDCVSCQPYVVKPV

T3: MLL3 ePHD6 E1097A (human, UniProt Q8NEZ4 1055-1144, E1097A)
T3 sequence: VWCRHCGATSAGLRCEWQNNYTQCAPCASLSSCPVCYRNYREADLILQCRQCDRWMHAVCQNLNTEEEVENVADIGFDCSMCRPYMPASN

T4: MLL3_(ePHD6)_(1055–1144) (human, UniProt Q8NEZ4 1055-1144)
T4 chain: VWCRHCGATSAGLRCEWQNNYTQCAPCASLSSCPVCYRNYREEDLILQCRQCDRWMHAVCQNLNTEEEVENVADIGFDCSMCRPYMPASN


Key:
Test in all cases: ITC
[1] = molecular target: T1, MLL3 ePHD6 I1100L
[2] = molecular target: T2, MLL4_(ePHD6)_(1475–1564)
[3] = molecular target: T3, MLL3 ePHD6 E1097A
[4] = molecular target: T4, MLL3_(ePHD6)_(1055–1144)

Row | Binder | Kd [1] | Kd [2] | Kd [3] | Kd [4]
1 | GKGGA[Lys(Me3)]RHRKV [H4K16me3 peptide] | 34 µM | 14 µM | – | –
2 | GKGGAKRHRKV [histone H4 peptide H4_(11–21)] | – | – | 65 µM | –
3 | GKGGAK[Arg(Me)]HRKV [histone H4 peptide monomethylated at R17] | – | 70 µM | – | 113 µM
